Results from publication PMC3315512.

Experiments:
[1] = biological target: CeHsc70-Δ545 (half-lid deletion of CeHsc70) (C. elegans) (UniProt P09446)
[2] = biological target: CeHsc70-Δ512 (lidless CeHsc70) (C. elegans) (UniProt P09446)
Sequence of CeHsc70-Δ512 (lidless CeHsc70) (C. elegans) (P09446 1-512, stated change not applied): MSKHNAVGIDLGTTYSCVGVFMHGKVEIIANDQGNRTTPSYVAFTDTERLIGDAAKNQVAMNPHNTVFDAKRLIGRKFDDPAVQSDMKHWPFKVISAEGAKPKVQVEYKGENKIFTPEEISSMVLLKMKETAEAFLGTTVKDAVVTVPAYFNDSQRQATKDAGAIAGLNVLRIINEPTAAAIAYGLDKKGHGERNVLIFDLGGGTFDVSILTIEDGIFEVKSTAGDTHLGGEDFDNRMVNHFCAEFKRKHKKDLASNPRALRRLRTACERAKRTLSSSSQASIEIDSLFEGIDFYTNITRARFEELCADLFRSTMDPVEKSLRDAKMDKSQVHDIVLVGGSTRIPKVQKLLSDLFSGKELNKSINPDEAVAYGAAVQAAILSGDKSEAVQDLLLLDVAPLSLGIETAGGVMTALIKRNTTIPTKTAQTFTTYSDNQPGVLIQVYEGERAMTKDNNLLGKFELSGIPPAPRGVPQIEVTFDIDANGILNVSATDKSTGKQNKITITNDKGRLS

Sequence of DNJ-13 (C. elegans, unlabelled), Q20774 1-331 (natural protein) (Q20774 entry or part of it): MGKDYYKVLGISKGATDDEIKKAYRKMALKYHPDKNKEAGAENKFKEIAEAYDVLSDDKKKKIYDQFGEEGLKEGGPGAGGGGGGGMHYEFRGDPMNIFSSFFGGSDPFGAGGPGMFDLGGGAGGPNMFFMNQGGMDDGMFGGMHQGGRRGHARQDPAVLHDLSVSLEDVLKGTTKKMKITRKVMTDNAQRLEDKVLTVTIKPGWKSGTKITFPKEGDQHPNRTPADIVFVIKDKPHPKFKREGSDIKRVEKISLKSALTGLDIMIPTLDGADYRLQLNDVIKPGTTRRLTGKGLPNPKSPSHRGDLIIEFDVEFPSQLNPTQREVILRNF
Sequence of CeHsc70-Δ545 (half-lid deletion of CeHsc70) (C. elegans) (P09446 1-545, stated change not applied): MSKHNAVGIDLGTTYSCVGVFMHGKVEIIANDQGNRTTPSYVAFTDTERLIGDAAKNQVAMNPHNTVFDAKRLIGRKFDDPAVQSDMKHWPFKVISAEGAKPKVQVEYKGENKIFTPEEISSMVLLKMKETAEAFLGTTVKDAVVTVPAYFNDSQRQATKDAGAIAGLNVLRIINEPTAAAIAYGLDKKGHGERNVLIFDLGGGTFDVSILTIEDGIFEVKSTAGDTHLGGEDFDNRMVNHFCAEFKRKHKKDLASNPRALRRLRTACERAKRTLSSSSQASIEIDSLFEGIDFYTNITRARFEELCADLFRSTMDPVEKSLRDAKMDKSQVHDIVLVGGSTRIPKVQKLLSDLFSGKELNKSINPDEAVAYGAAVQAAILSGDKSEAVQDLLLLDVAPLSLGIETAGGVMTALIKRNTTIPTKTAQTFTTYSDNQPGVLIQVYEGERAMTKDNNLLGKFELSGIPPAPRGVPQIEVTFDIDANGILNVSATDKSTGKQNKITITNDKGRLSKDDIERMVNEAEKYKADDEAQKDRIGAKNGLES

Question: Which results are given for “DNJ-13 (C. elegans, unlabelled), Q20774 1-331 (natural protein)”?
Answer: apparent KD of DNJ-13 from titration of the steady-state ATPase activity, standard buffer, 25°C [1]: 4.2 µM; apparent KD of DNJ-13 from titration of the steady-state ATPase activity of 1 µM CeHsc70-Δ512 in the presence of 2 µM BAG-1, standard buffer, 25°C [2]: 1.2 µM
